16 molecules from patent publication US20240199746A1 (published 2024) can be followed below.

For assay [1], the target named is T1, Ax1 protein, extracellular domain (human, UniProt P30530 26-451).
T1 construct: extracellular domain; also called Axl; Ark
T1 sequence (looked up): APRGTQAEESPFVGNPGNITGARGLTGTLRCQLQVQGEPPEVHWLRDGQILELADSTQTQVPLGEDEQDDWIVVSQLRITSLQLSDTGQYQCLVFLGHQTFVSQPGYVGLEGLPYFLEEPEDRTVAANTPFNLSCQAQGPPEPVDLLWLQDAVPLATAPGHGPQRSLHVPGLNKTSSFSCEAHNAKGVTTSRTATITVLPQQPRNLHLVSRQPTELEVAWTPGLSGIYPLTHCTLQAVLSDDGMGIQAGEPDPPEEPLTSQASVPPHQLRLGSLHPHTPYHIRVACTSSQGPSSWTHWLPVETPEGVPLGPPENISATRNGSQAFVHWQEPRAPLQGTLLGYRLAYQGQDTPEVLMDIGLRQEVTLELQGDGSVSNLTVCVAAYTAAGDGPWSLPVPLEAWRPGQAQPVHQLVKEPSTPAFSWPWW
In words: ELISA, mutant diluted 1:3. The text has this:
(§1) The DNA encoding the wild-type antibody was evolved to generate a mutant antibody library using Comprehensive Positional Evolution (CPE), which each position in the template antibody is randomized one at a time. Each mutant antibody in the library has only one single point mutation. The mutant antibodies in the library were generated by simultaneously screening for selective binding affinity to Ax1 at pH 6.0 over pH 7.4 by ELISA. Two mutant antibody dilutions were used: 1:3 and 1:9 dilutions.

For assay [2], the target named is T1, Ax1 protein, extracellular domain. The assay is described as follows: ELISA, mutant diluted 1:9.
From the text: as §1
A general note: ELISA stands for enzyme-linked immunosorbent assay.

B1: HC-B102I (antibody, V domains shown)
VH: EVQLVQSGAEVKKPGATVKISCKVSGYSFTGHTMNWIRQPPGKGLEWIGLIKPSNGGTSYNQKFKGRVTISADKSISTAYLQWSSLKASDTAMYYCAHGHYISYFAMDYWGQGTLVTVSS
VL: DIQMTQSPSSLSASVGDRVTITCKASQDVSSAVAWYQQKPGQAPRLLIYWASTRHTGVPSRFSGSGSGTEFTLTISSLQPDDFATYYCQEHFSTPLTFGQGTKVEIK
notes: CPE single point mutant; printed B102, read as E102 (other rows print HC-E102x)
As to B1, the “Affinity ELISA CPE mutant ratio (1:3, pH 6.0/7.4)” value in assay [1] came out at 2.02. Besides, the “Affinity ELISA CPE mutant ratio (1:9, pH 6.0/7.4)” value in assay [2] was 1.7.

B2: HC-M107F (antibody, V domains shown)
VH: EVQLVQSGAEVKKPGATVKISCKVSGYSFTGHTMNWIRQPPGKGLEWIGLIKPSNGGTSYNQKFKGRVTISADKSISTAYLQWSSLKASDTAMYYCAHGHYESYFAFDYWGQGTLVTVSS
VL: DIQMTQSPSSLSASVGDRVTITCKASQDVSSAVAWYQQKPGQAPRLLIYWASTRHTGVPSRFSGSGSGTEFTLTISSLQPDDFATYYCQEHFSTPLTFGQGTKVEIK
notes: CPE single point mutant
Consider B2, for which the “Affinity ELISA CPE mutant ratio (1:3, pH 6.0/7.4)” value in assay [1] came to 20.6. Besides, the “Affinity ELISA CPE mutant ratio (1:9, pH 6.0/7.4)” value in assay [2] is 1.09.

B3: HC-H100P (antibody, V domains shown)
VH: EVQLVQSGAEVKKPGATVKISCKVSGYSFTGHTMNWIRQPPGKGLEWIGLIKPSNGGTSYNQKFKGRVTISADKSISTAYLQWSSLKASDTAMYYCAHGPYESYFAMDYWGQGTLVTVSS
VL: DIQMTQSPSSLSASVGDRVTITCKASQDVSSAVAWYQQKPGQAPRLLIYWASTRHTGVPSRFSGSGSGTEFTLTISSLQPDDFATYYCQEHFSTPLTFGQGTKVEIK
notes: CPE single point mutant
B3: the “Affinity ELISA CPE mutant ratio (1:3, pH 6.0/7.4)” value in assay [1] was 2.58. In addition, in assay [2], the “Affinity ELISA CPE mutant ratio (1:9, pH 6.0/7.4)” value was found to be 1.18.

B4: HC-F105S (antibody, V domains shown)
VH: EVQLVQSGAEVKKPGATVKISCKVSGYSFTGHTMNWIRQPPGKGLEWIGLIKPSNGGTSYNQKFKGRVTISADKSISTAYLQWSSLKASDTAMYYCAHGHYESYSAMDYWGQGTLVTVSS
VL: DIQMTQSPSSLSASVGDRVTITCKASQDVSSAVAWYQQKPGQAPRLLIYWASTRHTGVPSRFSGSGSGTEFTLTISSLQPDDFATYYCQEHFSTPLTFGQGTKVEIK
notes: CPE single point mutant
With B4, the “Affinity ELISA CPE mutant ratio (1:3, pH 6.0/7.4)” value in assay [1] came out at 3.9. The “Affinity ELISA CPE mutant ratio (1:9, pH 6.0/7.4)” value in assay [2] is 4.54.

B5: HC-E102M (antibody, V domains shown)
VH: EVQLVQSGAEVKKPGATVKISCKVSGYSFTGHTMNWIRQPPGKGLEWIGLIKPSNGGTSYNQKFKGRVTISADKSISTAYLQWSSLKASDTAMYYCAHGHYMSYFAMDYWGQGTLVTVSS
VL: DIQMTQSPSSLSASVGDRVTITCKASQDVSSAVAWYQQKPGQAPRLLIYWASTRHTGVPSRFSGSGSGTEFTLTISSLQPDDFATYYCQEHFSTPLTFGQGTKVEIK
notes: CPE single point mutant
As for B5, the “Affinity ELISA CPE mutant ratio (1:3, pH 6.0/7.4)” value in assay [1] stood at 2.08. The “Affinity ELISA CPE mutant ratio (1:9, pH 6.0/7.4)” value in assay [2] amounted to 2.36.

B6: HC-H100R (antibody, V domains shown)
VH: EVQLVQSGAEVKKPGATVKISCKVSGYSFTGHTMNWIRQPPGKGLEWIGLIKPSNGGTSYNQKFKGRVTISADKSISTAYLQWSSLKASDTAMYYCAHGRYESYFAMDYWGQGTLVTVSS
VL: DIQMTQSPSSLSASVGDRVTITCKASQDVSSAVAWYQQKPGQAPRLLIYWASTRHTGVPSRFSGSGSGTEFTLTISSLQPDDFATYYCQEHFSTPLTFGQGTKVEIK
notes: CPE single point mutant
B6: the “Affinity ELISA CPE mutant ratio (1:3, pH 6.0/7.4)” value in assay [1] was 1.88. The “Affinity ELISA CPE mutant ratio (1:9, pH 6.0/7.4)” value in assay [2] was found to be 2.51.

B7: HC-F105V (antibody, V domains shown)
VH: EVQLVQSGAEVKKPGATVKISCKVSGYSFTGHTMNWIRQPPGKGLEWIGLIKPSNGGTSYNQKFKGRVTISADKSISTAYLQWSSLKASDTAMYYCAHGHYESYVAMDYWGQGTLVTVSS
VL: DIQMTQSPSSLSASVGDRVTITCKASQDVSSAVAWYQQKPGQAPRLLIYWASTRHTGVPSRFSGSGSGTEFTLTISSLQPDDFATYYCQEHFSTPLTFGQGTKVEIK
notes: CPE single point mutant
Consider B7, for which the “Affinity ELISA CPE mutant ratio (1:3, pH 6.0/7.4)” value in assay [1] turned out to be 2.43. The “Affinity ELISA CPE mutant ratio (1:9, pH 6.0/7.4)” value in assay [2] is 2.8.

B8: HC-N035I (antibody, V domains shown)
VH: EVQLVQSGAEVKKPGATVKISCKVSGYSFTGHTMIWIRQPPGKGLEWIGLIKPSNGGTSYNQKFKGRVTISADKSISTAYLQWSSLKASDTAMYYCAHGHYESYFAMDYWGQGTLVTVSS
VL: DIQMTQSPSSLSASVGDRVTITCKASQDVSSAVAWYQQKPGQAPRLLIYWASTRHTGVPSRFSGSGSGTEFTLTISSLQPDDFATYYCQEHFSTPLTFGQGTKVEIK
notes: CPE single point mutant
Take B8: the “Affinity ELISA CPE mutant ratio (1:3, pH 6.0/7.4)” value in assay [1] came to 2.81. Further, the “Affinity ELISA CPE mutant ratio (1:9, pH 6.0/7.4)” value in assay [2] was 1.12.

B9: HC-H100D (antibody, V domains shown)
VH: EVQLVQSGAEVKKPGATVKISCKVSGYSFTGHTMNWIRQPPGKGLEWIGLIKPSNGGTSYNQKFKGRVTISADKSISTAYLQWSSLKASDTAMYYCAHGDYESYFAMDYWGQGTLVTVSS
VL: DIQMTQSPSSLSASVGDRVTITCKASQDVSSAVAWYQQKPGQAPRLLIYWASTRHTGVPSRFSGSGSGTEFTLTISSLQPDDFATYYCQEHFSTPLTFGQGTKVEIK
notes: CPE single point mutant
Regarding B9, the “Affinity ELISA CPE mutant ratio (1:3, pH 6.0/7.4)” value in assay [1] was determined as 2.42. In assay [2], the “Affinity ELISA CPE mutant ratio (1:9, pH 6.0/7.4)” value was 3.09.

B10: HC-S059I (antibody, V domains shown)
VH: EVQLVQSGAEVKKPGATVKISCKVSGYSFTGHTMNWIRQPPGKGLEWIGLIKPSNGGTIYNQKFKGRVTISADKSISTAYLQWSSLKASDTAMYYCAHGHYESYFAMDYWGQGTLVTVSS
VL: DIQMTQSPSSLSASVGDRVTITCKASQDVSSAVAWYQQKPGQAPRLLIYWASTRHTGVPSRFSGSGSGTEFTLTISSLQPDDFATYYCQEHFSTPLTFGQGTKVEIK
notes: CPE single point mutant
In the case of B10, the “Affinity ELISA CPE mutant ratio (1:3, pH 6.0/7.4)” value in assay [1] was determined as 30.5. Also, in assay [2], the “Affinity ELISA CPE mutant ratio (1:9, pH 6.0/7.4)” value came to 2.06.

B11: HC-E102V (antibody, V domains shown)
VH: EVQLVQSGAEVKKPGATVKISCKVSGYSFTGHTMNWIRQPPGKGLEWIGLIKPSNGGTSYNQKFKGRVTISADKSISTAYLQWSSLKASDTAMYYCAHGHYVSYFAMDYWGQGTLVTVSS
VL: DIQMTQSPSSLSASVGDRVTITCKASQDVSSAVAWYQQKPGQAPRLLIYWASTRHTGVPSRFSGSGSGTEFTLTISSLQPDDFATYYCQEHFSTPLTFGQGTKVEIK
notes: CPE single point mutant
As for B11, in assay [1], the “Affinity ELISA CPE mutant ratio (1:3, pH 6.0/7.4)” value stood at 1.93. Further, the “Affinity ELISA CPE mutant ratio (1:9, pH 6.0/7.4)” value in assay [2] worked out at 2.51.

B12: HC-P053N (antibody, V domains shown)
VH: EVQLVQSGAEVKKPGATVKISCKVSGYSFTGHTMNWIRQPPGKGLEWIGLIKNSNGGTSYNQKFKGRVTISADKSISTAYLQWSSLKASDTAMYYCAHGHYESYFAMDYWGQGTLVTVSS
VL: DIQMTQSPSSLSASVGDRVTITCKASQDVSSAVAWYQQKPGQAPRLLIYWASTRHTGVPSRFSGSGSGTEFTLTISSLQPDDFATYYCQEHFSTPLTFGQGTKVEIK
notes: CPE single point mutant
B12: in assay [1], the “Affinity ELISA CPE mutant ratio (1:3, pH 6.0/7.4)” value is 1.4. The “Affinity ELISA CPE mutant ratio (1:9, pH 6.0/7.4)” value in assay [2] came out at 1.89.

B13: HC-F105N (antibody, V domains shown)
VH: EVQLVQSGAEVKKPGATVKISCKVSGYSFTGHTMNWIRQPPGKGLEWIGLIKPSNGGTSYNQKFKGRVTISADKSISTAYLQWSSLKASDTAMYYCAHGHYESYNAMDYWGQGTLVTVSS
VL: DIQMTQSPSSLSASVGDRVTITCKASQDVSSAVAWYQQKPGQAPRLLIYWASTRHTGVPSRFSGSGSGTEFTLTISSLQPDDFATYYCQEHFSTPLTFGQGTKVEIK
notes: CPE single point mutant
In the case of B13, in assay [1], the “Affinity ELISA CPE mutant ratio (1:3, pH 6.0/7.4)” value is 2.36. Also, in assay [2], the “Affinity ELISA CPE mutant ratio (1:9, pH 6.0/7.4)” value turned out to be 2.64.

B14: HC-E102Y (antibody, V domains shown)
VH: EVQLVQSGAEVKKPGATVKISCKVSGYSFTGHTMNWIRQPPGKGLEWIGLIKPSNGGTSYNQKFKGRVTISADKSISTAYLQWSSLKASDTAMYYCAHGHYYSYFAMDYWGQGTLVTVSS
VL: DIQMTQSPSSLSASVGDRVTITCKASQDVSSAVAWYQQKPGQAPRLLIYWASTRHTGVPSRFSGSGSGTEFTLTISSLQPDDFATYYCQEHFSTPLTFGQGTKVEIK
notes: CPE single point mutant
With B14, the “Affinity ELISA CPE mutant ratio (1:3, pH 6.0/7.4)” value in assay [1] amounted to 2.61. Besides, in assay [2], the “Affinity ELISA CPE mutant ratio (1:9, pH 6.0/7.4)” value came out at 1.99.

B15: HC-F105T (antibody, V domains shown)
VH: EVQLVQSGAEVKKPGATVKISCKVSGYSFTGHTMNWIRQPPGKGLEWIGLIKPSNGGTSYNQKFKGRVTISADKSISTAYLQWSSLKASDTAMYYCAHGHYESYTAMDYWGQGTLVTVSS
VL: DIQMTQSPSSLSASVGDRVTITCKASQDVSSAVAWYQQKPGQAPRLLIYWASTRHTGVPSRFSGSGSGTEFTLTISSLQPDDFATYYCQEHFSTPLTFGQGTKVEIK
notes: CPE single point mutant
For the molecule B15, the “Affinity ELISA CPE mutant ratio (1:3, pH 6.0/7.4)” value in assay [1] amounted to 3.46. The “Affinity ELISA CPE mutant ratio (1:9, pH 6.0/7.4)” value in assay [2] was 4.02.

B16: HC-M107E (antibody, V domains shown)
VH: EVQLVQSGAEVKKPGATVKISCKVSGYSFTGHTMNWIRQPPGKGLEWIGLIKPSNGGTSYNQKFKGRVTISADKSISTAYLQWSSLKASDTAMYYCAHGHYESYFAEDYWGQGTLVTVSS
VL: DIQMTQSPSSLSASVGDRVTITCKASQDVSSAVAWYQQKPGQAPRLLIYWASTRHTGVPSRFSGSGSGTEFTLTISSLQPDDFATYYCQEHFSTPLTFGQGTKVEIK
notes: CPE single point mutant
In the case of B16, the “Affinity ELISA CPE mutant ratio (1:3, pH 6.0/7.4)” value in assay [1] is 2.16. Besides, in assay [2], the “Affinity ELISA CPE mutant ratio (1:9, pH 6.0/7.4)” value amounted to 1.36.
